We go through 5 molecules from paper PMC11869522, “Competitive displacement of lipoprotein lipase from heparan sulfate is orchestrated by a disordered acidic cluster in GPIHBP1” (Journal of Lipid Research, 2025).

Test [1] deals with hLPL bound to immobilized heparan sulfate. Nature of the test: GPIHBP1-mediated extraction of LPL from HSPGs (SPR, immobilized heparin dp4 fragments). Type of test: binding, human. The settings on record: 12.5–200 nM GPIHBP1 proteins, 0.1–1.6 μM sulfated GPIHBP1^1–33, or GPIHBP1^34–131 with 1 μM sulfated GPIHBP1^1–33. An excerpt:
To mimic electrostatic conditions found in the sub-endothelial spaces where surface-bound heparan-sulfate proteoglycans (HSPGs) are abundant, we designed a surrogate sensor surface using a streptavidin-coated CM5 sensor chip to capture high densities of biotinylated synthetic heparin dp4 fragments ([28], [29]). The reference surface was loaded with a neutral and non-sulfated fragment (M09 S00 from Iduron), while the active surface was loaded with a negatively charged fragment (M09 S08a from Iduron) containing N- and O-6-linked sulfations on each of the […] glucosamine residues in the DP4 fragment. Only the highly sulfated oligosaccharide bound LPL, and those interactions were transient with high off-rates. Despite the very transient nature of this binding, we created a stable reservoir of hLPL on the sensor surface by combining the fast kinetics of polyelectrolyte interactions with severe mass transport limitation—the latter phenomenon impedes LPL escape from the surface due to the fast rebinding that is favored by the high densities of immobilized heparin fragments (300 fmol/mm^2). For each experiment, 12.5 nM hLPL was loaded for 100 s at a flow rate of 20 μl/min in 10 mM Hepes (pH 7.4), 150 mM NaCl, 4 mM CaCl2, 10% (vol/vol) glycerol, 0.05% (vol/vol) surfactant P20, 1 mg/ml defatted BSA, […], and 0.05% (wt/vol) NaN3.
To compare the ability of GPIHBP1^1–131 and its charge variants to bind and extract hLPL from this dynamic reservoir, we injected twofold serial dilutions of 1.25–200 nM GPIHBP1^1–131; 1.25–200 nM GPIHBP1^Cluster1-neutral; GPIHBP1^Cluster2-neutral; 1.25–200 nM GPIHBP1^34–131; 0.1–1.6 μM GPIHBP1^1–33 with Tyr^18–SO4; or 1.25–200 nM GPIHBP1^34–131 in the presence of 1 μM sulfated GPIHBP1^1–33 for 250 s at 20 μl/min in 10 mM Hepes (pH 7.4), 150 mM NaCl, 4 mM CaCl2, 10% (vol/vol) glycerol, 0.05% (vol/vol) surfactant P20, 0.2 mg/ml fatty acid-free BSA, and 0.05% (wt/vol) NaN3. At the end of each cycle, two consecutive injections of 10 μl 3 M guanidinium chloride regenerated the chip.
GPIHBP1’s ability to displace LPL from its HSPG-bound state in the sub-endothelial spaces is essential for the trans-endothelial trafficking of LPL to the luminal surface of capillary cells ([29]). The importance of the acidic tail in this process is supported by solid evidence from surrogate in vitro models and in vivo studies in gene-edited mice ([28], [29]). It was therefore important to determine the relative impact of the two charge-clusters in GPIHBP1 on their ability to disrupt LPL•HSPG interactions. To gain this insight, we measured the ability of different GPIHBP1 charge variants to displace hLPL from a SPR sensor chip surface coupled with a high density of immobilized small heparin-like fragments ([28]). […]

In another test the test system is bLPL. Nature of the test: PCSK3 cleavage of LPL (SDS-PAGE densitometry). Conditions: 20 μM bLPL, 4 units PCSK3, 2 μM ANGPTL4, no GPIHBP1; 25°C, pH 7.0; 110 min without ANGPTL4. Type of test: biochemical, bovine. The procedure: To determine if charge-variants of GPIHBP1 confer distinct resistance to ANGPTL4-facilitated cleavage of LPL after Arg^324 by PCSK3 ([33]), we incubated purified bLPL (20 μM) with PCSK3 (4 units) for 0–240 min, either alone or in the presence of ANGPTL4 (2 μM) and/or GPIHBP1 (25 μM) at 25°C in 10 mM 2-(N-morpholino) ethane sulfonic acid (MES), 150 mM NaCl, 1 mM CaCl2, pH 7.0. We tested four different GPIHBP1 variants: GPIHBP1^1–131, GPIHBP1^Cluster1-neutral, GPIHBP1^Cluster2-neutral, and GPIHBP1^34–131 (LU domain only). PCSK3 cleavage was stopped by boiling in SDS-PAGE sample buffer (reduced and alkylated) and the degree of cleavage was assessed by SDS-PAGE using 12% Bis-Tris SDS-PAGE gels followed by densitometric scanning of the corresponding Coomassie blue–stained SDS-polyacrylamide gels.
Secretion of LPL by adipocytes is modulated in an autocrine manner by ANGPTL4. […] In the presence of endogenous ANGPTL4, a significant fraction of LPL was cleaved by PCSK3 in the trans-Golgi compartment. […] The presence of GPIHBP1 dramatically delayed PCSK3 cleavage of LPL ([33]). To assess the role of the acidic tail in GPIHBP1 on this delay, we incubated 20 μM bLPL with 4 units of PCSK3 either alone or in the presence of 2 μM ANGPTL4. We observed that the presence of sub-stoichiometric amounts of ANGPTL4 reduced the half-life of intact bLPL from 110 min to less than 5 min (Fig. 5A). […] Our results emphasized the essential role of GPIHBP1’s acidic tail in protecting LPL against ANGPTL4-induced cleavage by PCSK3.
Fig. 5 GPIHBP1 reduces ANGPTL4-facillitated PSCK3 cleavage of LPL. 20 μM bLPL was incubated with 4 units of PSCK3 for 0–240 min at 25°C and the extent of LPL cleavage after Arg^324 was assessed by densitometric scanning of Coomassie–blue stained polyacrylamide after SDS-PAGE of reduced and alkylated samples. A: PSCK3 cleavage of LPL is accelerated by the presence of 2 μM ANGPTL4—present at sub-stoichiometric amounts compared to bLPL (20 μM). 25 μM intact GPIHBP1, but not GPIHBP1^34–131 mitigates PSCK3 cleavage of LPL. B: Both GPIHBP1^Cluster1-neutral and GPIHBP1^Cluster2-neutral rescue LPL from cleavage by PSCK3 in the absence of ANGPTL4 and both are more efficient than GPIHBP1^34–131. C: in the presence of 2 μM ANGPTL4, 25 μM GPIHBP1^Cluster1-neutral protects LPL from PSCK3 cleavage more efficiently than the GPIHBP1^Cluster2-neutral, which indicates a more prominent role of acidic cluster 2 in protecting LPL from ANGPTL4-catalyzed unfolding and subsequent PSCK3 cleavage. Shown are the mean values (±SEM) for intact LPL relative to that present at time 0 min for 3–5 independent time-course experiments. Some curves appear in multiple panels to increase clarity.

In test [2] the target is T1, Human LPL (lipoprotein lipase) (human, UniProt P06858 28-475, R324A).
T1 sequence (looked up): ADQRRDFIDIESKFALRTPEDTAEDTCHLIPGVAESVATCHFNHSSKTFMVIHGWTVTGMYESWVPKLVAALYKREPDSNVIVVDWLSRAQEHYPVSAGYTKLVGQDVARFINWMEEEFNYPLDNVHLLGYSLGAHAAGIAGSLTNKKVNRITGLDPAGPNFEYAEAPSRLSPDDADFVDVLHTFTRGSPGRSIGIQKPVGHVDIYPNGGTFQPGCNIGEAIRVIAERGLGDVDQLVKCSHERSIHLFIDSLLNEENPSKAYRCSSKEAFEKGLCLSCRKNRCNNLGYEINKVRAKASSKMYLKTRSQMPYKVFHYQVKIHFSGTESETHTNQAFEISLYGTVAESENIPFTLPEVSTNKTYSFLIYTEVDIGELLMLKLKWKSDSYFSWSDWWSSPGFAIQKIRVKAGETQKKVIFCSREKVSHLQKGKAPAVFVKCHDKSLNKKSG
In words: cell-based or functional assay.

The next test deals with T2, Bovine LPL (bovine, UniProt P11151 29-478).
T2 construct: also called bLPL; source: purified from fresh bovine milk
T2 sequence (looked up): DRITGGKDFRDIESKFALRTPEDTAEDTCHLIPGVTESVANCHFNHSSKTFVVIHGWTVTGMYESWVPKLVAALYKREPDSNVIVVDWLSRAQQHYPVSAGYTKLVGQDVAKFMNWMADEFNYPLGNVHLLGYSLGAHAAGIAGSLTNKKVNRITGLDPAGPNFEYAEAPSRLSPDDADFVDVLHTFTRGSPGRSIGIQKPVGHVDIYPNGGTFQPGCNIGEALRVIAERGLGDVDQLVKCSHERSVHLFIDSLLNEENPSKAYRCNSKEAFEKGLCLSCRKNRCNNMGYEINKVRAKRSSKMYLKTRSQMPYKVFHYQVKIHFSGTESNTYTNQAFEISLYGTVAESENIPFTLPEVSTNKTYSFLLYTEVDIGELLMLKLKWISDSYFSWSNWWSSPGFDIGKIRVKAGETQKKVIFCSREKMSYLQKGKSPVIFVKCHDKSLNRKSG
In words: native gel or EMSA; native PAGE of purified GPIHBP1 charge variants with hLPL, bLPL or mLPL (supplemental Fig. S1). The settings on record: both partners purified. (Mobility shift assays separate free from complexed probe on a gel.)

Where no end group is shown, it is not given here. The star is where a group is joined. sulfate = O=S(=O)(O)*

Regarding “sulfated GPIHBP1^1–33: GPIHBP1^1–33 peptide carrying a tyrosyl-sulfation (Tyr^18) (QTQQEEEEEDEDHGPDDY(sulfate)DEEDEDEVEEEETNR; UniProt Q8IV16 21-53, looked up, fragment)”, the “competitive displacement of HSPG-bound hLPL (in words)” value in test [1] was “not perturbed”.

B1: ANGPTL4: Coiled-coil domain of ANGPTL4 (residues 1–159, N-terminal methionine, C-terminal 6× His-tag) produced in E. coli (protein, UniProt Q9BY76 26-406, looked up)
Angiopoietin-related protein 4: GPVQSKSPRFASWDEMNVLAHGLLQLGQGLREHAERTRSQLSALERRLSACGSACQGTEGSTDLPLAPESRVDPEVLHSLQTQLKAQNSRIQQLFHKVAQQQRHLEKQHLRIQHLQSQFGLLDHKHLDHEVAKPARRKRLPEMAQPVDPAHNVSRLHRLPRDCQELFQVGERQSGLFEIQPQGSPPFLVNCKMTSDGGWTVIQRRHDGSVDFNRPWEAYKAGFGDPHGEFWLGLEKVHSITGDRNSRLAVQLRDWDGNAELLQFSVHLGGEDTAYSLQLTAPVAGQLGATTVPPSGLSVPFSTWDQDHDLRRDKNCAKSLSGGWWFGTCSHSNLNGQYFRSIPQQRQKLKKGIFWKTWRGRYYPLQATTMLIQPMAAEAAS
Consider B1, for which the “half-life of intact bLPL” value in the test on bLPL is “less than 5 min”.

B2: GPIHBP1^1–131/R38G (domain or fragment, human, UniProt Q8IV16 21-151, looked up)
chain: QTQQEEEEEDEDHGPDDYDEEDEDEVEEEETNRLPGGGSRVLLRCYTCKSLPRDERCNLTQNCSHGQTCTTLIAHGNTESGLLTTHSTWCTDSCQPITKTVEGTQVTMTCCQSSLCNVPPWQSSRVQDPTG
modifications: sulfated Tyr18; one bi-antennary N-linked glycosylation
Turning to B2, the “reduction in hLPL levels on the heparan sulfate sensor surface after GPIHBP1 injections (12.5–200 nM), SPR” value (from here on “reduction in hLPL levels”) in test [2] amounted to 68.1%.

B3: GPIHBP1^Cluster2-neutral (domain or fragment, human, UniProt Q8IV16 21-151, looked up)
chain: QTQQEEEEEDEDHGPDDYNQQNQNQVQQQQTNRLPGGGSRVLLRCYTCKSLPRDERCNLTQNCSHGQTCTTLIAHGNTESGLLTTHSTWCTDSCQPITKTVEGTQVTMTCCQSSLCNVPPWQSSRVQDPTG
modifications: Tyr18 sulfation absent; one bi-antennary N-linked glycosylation
notes: Construct from VectorBuilder Inc; source: Drosophila S2-cells, secreted, purified, D3 tag removed; not shown: uPAR domain III, N-terminal, cleaved
On to B3, for which the “reduction in hLPL levels” value in test [2] amounted to 1.2%. In the test with Bovine LPL, the binding result is on record as “binds”.

B4: GPIHBP1^Cluster1-neutral (domain or fragment, human, UniProt Q8IV16 21-151, looked up)
chain: QTQQQQQQQNQNHGPNNYDEEDEDEVEEEETNRLPGGGSRVLLRCYTCKSLPRDERCNLTQNCSHGQTCTTLIAHGNTESGLLTTHSTWCTDSCQPITKTVEGTQVTMTCCQSSLCNVPPWQSSRVQDPTG
modifications: Tyr18 sulfation present in less than 40%; one bi-antennary N-linked glycosylation
notes: as for B3
Take B4: the “reduction in hLPL levels” value in test [2] stood at 34.8%. Also, the binding result with Bovine LPL was “binds”.
